From patent publication US20220184120A1 (MINERVA BIOTECHNOLOGIES, published 2022) come the findings set out here.

Sequences and labels used below:
T1: PSMGFR peptide (Primary Sequence of the MUC1 Growth Factor Receptor)
T1 construct: synthetic peptide immobilised on ELISA plates; also called MUC1* peptide; MUC1* extra cellular domain peptide
T1 peptide: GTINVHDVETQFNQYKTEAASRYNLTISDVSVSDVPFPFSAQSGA

T2: MUC1 transmembrane cleavage product after cleavage of full-length MUC1 by MMP9 (UniProt P15941 1110-1255)
T2 construct: on HCT-MUC1-18 (or T47D) cells treated with MMP9; also called MUC1* generated by cleavage by MMP9; MMP9 cleaved form of MUC1
T2 sequence (looked up): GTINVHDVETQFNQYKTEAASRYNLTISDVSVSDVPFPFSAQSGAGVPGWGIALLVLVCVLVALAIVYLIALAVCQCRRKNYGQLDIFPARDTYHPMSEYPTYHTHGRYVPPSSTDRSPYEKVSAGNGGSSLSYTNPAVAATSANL

T3: N+9/C-9 peptide (9 amino acids added onto the N-terminus and 9 deleted from the C-terminus of PSMGFR)
T3 peptide: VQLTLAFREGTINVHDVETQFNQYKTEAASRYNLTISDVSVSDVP

T4: N-19/C-5 peptide
T4 peptide: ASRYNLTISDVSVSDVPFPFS

T5: N-26 peptide
T5 peptide: ISDVSVSDVPFPFSAQSGA

T6: N-30 peptide
T6 peptide: SVSDVPFPFSAQSGA

T7: N-10/C-5 peptide
T7 peptide: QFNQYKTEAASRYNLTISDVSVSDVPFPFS

T8: N-10 peptide (PSMGFR minus 10 amino acids from the N-terminus)
T8 construct: also called N-10 PSMGFR; PSMGFR N-10
T8 peptide: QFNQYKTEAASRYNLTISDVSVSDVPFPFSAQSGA

T9: N-19 peptide
T9 peptide: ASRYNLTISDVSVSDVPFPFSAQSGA

T10: MUC1* (cleaved MUC1) as it occurs on MUC1/MUC1* positive cancer cell lines (human, UniProt P15941 1110-1255, limits assumed)
T10 construct: the cell line is named under assay; also called MUC1* positive cancer cells; ZR-75-1 aka 1500
T10 sequence (looked up): T2 sequence (looked up)

T11: NME7-AB (recombinant) (Homo sapiens (Human), UniProt Q9Y5B8 92-376)
T11 construct: the entry ends in a His tag; also called NM23-H7
T11 sequence: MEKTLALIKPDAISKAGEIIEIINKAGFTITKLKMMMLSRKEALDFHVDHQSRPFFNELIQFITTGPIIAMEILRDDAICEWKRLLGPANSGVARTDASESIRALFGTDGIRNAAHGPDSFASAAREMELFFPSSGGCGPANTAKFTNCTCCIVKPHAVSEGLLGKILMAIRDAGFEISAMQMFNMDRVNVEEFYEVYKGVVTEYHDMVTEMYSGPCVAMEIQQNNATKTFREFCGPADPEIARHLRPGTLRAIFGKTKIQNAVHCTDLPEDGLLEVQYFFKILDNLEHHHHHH

T12: N+20/C-27 peptide (20 amino acids added onto the N-terminus and 27 deleted from the C-terminus of PSMGFR)
T12 peptide: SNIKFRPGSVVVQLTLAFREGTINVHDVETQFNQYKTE

B1: humanized MN-C2 scFv (scFv)
scFv: EVQLVESGGGLVKPGGSLRLSCAASGFTFSGYAMSWVRQAPGKGLEWVSTISSGGTYIYYPDSVKGRFTISRDNAKNSLYLQMNSLRAEDTAVYYCARLGGDNYYEYFDVWGKGTTVTVSSGGGGSGGGGSGGGGSDIVLTQSPASLAVSPGQRATITCRASKSVSTSGYSYMHWYQQKPGQPPKLLIYLASNLESGVPARFSGSGSGTDFTLTINPVEANDTANYYCQHSRELPFTFGGGTKVEIKRT
notes: also called huMN-C2scFv; huMNC2scFv; not shown: 6xHis tag detected with Anti-Penta-His antibody
B2: 8A9 mouse monoclonal antibody (antibody, V domains shown)
VH: EVELVESGGGLVQPGGSLRLSCATSGFTFTDHYMSWVRQPPGKALEWLGFIRNKANGYTTEYSASVKGRFTISRDNSQSILYLQMKTLRTEDSATYYCARPSDWDSWFAYWGQGTLVTVSA
VL: DVLMTQTPLSLPVSLGDQASISCRSSQSIVHSNGNTYLDWYLQKPGQSPKLLIYRVSNRFSGVPDRFSGSGSGTDFTLKISRVEAEDLGLYYCFQGSHVPWAFGGGTKLEIK
notes: raised against N+9/C-9; also called N+9/C-9 antibody 8A9
B3: 45C11 mouse monoclonal antibody (antibody, V domains shown)
VH: EVQLQQSGADLVKPGASVKLSCTASGFNIKDTFMHWVKQRPEQGLEWIGRIDPANGNTKYDPKFQGKATITADTSSNTAYLQLSSLTSEDTAVYYCAKPYGNYGYYYALDYWGQGTSVTVSS
VL: DVQITQSPSYLAASPGETITINCRASKSISKYLAWYQEKPGKTNKLLIYSGSTLQSGIPSRFSGSGSGTDFTLTISSLEPEDFAMYYCQQHNEFPWTFGGGTKLEIK
notes: raised against N+20/C-27; also called N+20/C-27 antibody 45C11
B4: C-10 peptide (PSMGFR minus 10 amino acids from the C-terminus) (peptide)
peptide: GTINVHDVETQFNQYKTEAASRYNLTISDVSVSDV
notes: also called C-10 PSMGFR; PSMGFR C-10
B5: MN-E6 mouse monoclonal anti-MUC1* antibody (antibody, V domains shown)
VH: EVKVVESGGDLVKPGGSLKLSCVVSGFTFSRYGMSWVRQTPGKRLEWVATISGGGTYIYYPDSVKGRFTISRDNAKNTLYLQMSSLKSEDTAMYHCTRDNYGRNYDYGMDYWGQGTSVTVSS
VL: QIVLTQSPAIMSASPGEEVTLTCSATSSVSYIHWFQQRPGTSPKLWIYSTSNLASGVPVRFSGSGYGTSYSLTISRMEAEDAATYYCQQRSSSPFTFGSGTKLEIK
notes: mouse monoclonal raised against PSMGFR; also called Min-E6

The target in assay [1] is B4. Nature of the assay: ELISA (recap in IHC legend). On the technique in general: An ELISA detects its analyte on a solid surface through an enzyme-linked reagent.
Assay [2] has as its target T1, PSMGFR peptide (Primary Sequence of the …). Nature of the assay: ELISA, PSMGFR peptide on plate (FIG. 5). How it is done: Humanized MN-C2 scFv is then incubated with the surface, washed and detected according to standard methods.
Assay [3] addresses T2, MUC1 transmembrane cleavage product …. Nature of the assay: flow cytometry, HCT-MUC1-18 cells + enzyme (FIG. 75L). How it is done:
(§1) Antibodies generated by immunization with PSMGFR, N+20/C−27, or N+9/C−9 were tested for their ability to recognize MUC1 after it is cleaved by MMP9. […] To HCT-MUC1-18 cells was added either a catalytically active MMP9 or MMP2. The enzymes, added over a range of concentrations, were incubated with the cells for 24 hours. The resultant cells were then incubated with the various antibodies and analyzed by FACS to determine which bound to a MUC1 cleavage product produced by cleavage by MMP9 (FIG. 75A-75N). […] Each bar graph is labeled with both the name of the antibody used in that assay and its cognate epitope. The order of the graphs from right to left corresponds to the distance from the cell surface of the antibody's cognate epitope. […] For the greatest degree of cancer specificity, the antibody should recognize a conformational epitope of a MUC1 cleavage product created when MUC1 is cleaved by MMP9.
On the technique in general: In flow cytometry, cells or beads pass a laser one at a time.

For assay [4], the target named is T3, N+9/C-9 peptide (9 amino acids added …). The experiment in a line: ELISA (FIG. 66).
The target in assay [5] is B4. Nature of the assay: ELISA (FIG. 69). How it is done: (§2) In order to further refine the epitopes to which each antibody binds, a series of smaller peptides derived from the PSMGFR sequence were synthesized: N−30 (SEQ ID NO:7), N−26 (SEQ ID NO:6), N−19 (SEQ ID NO:4), N−10/C−5 (SEQ ID NO:8), N−19/C−5 (SEQ ID NO:9). Each of the antibodies was tested in an ELISA assay for their ability to bind to this refined set of peptides, plus PSMGFR, N−10 and C−10 peptides (FIG. 67-69).

Another assay has as its target T4, N-19/C-5 peptide. Nature of the assay: ELISA (FIG. 69). How it is done: as §2
The target in assay [6] is T1, PSMGFR peptide (Primary Sequence of the …). The experiment in a line: ELISA (FIG. 69). How it is done: as §2
A further assay deals with T5, N-26 peptide. The experiment in a line: ELISA (FIG. 69). How it is done:
as §2

The next assay concerns the target T6, N-30 peptide. The experiment in a line: ELISA (FIG. 69). How it is done: as §2
The target of a further assay is T7, N-10/C-5 peptide. Nature of the assay: ELISA (FIG. 69). How it is done: as §2
Assay [7] concerns the target T8, N-10 peptide (PSMGFR minus 10 amino …). Nature of the assay: ELISA (FIG. 69). How it is done: as §2
The target in a further assay is T9, N-19 peptide. The experiment in a line: ELISA (FIG. 69). How it is done:
as §2

The target in assay [8] is T10, MUC1* (cleaved MUC1) as it occurs on …. Nature of the assay: flow cytometry, panel of cancer cell lines (FIGS. 80-87).
Assay [9] concerns the target T8, N-10 peptide (PSMGFR minus 10 amino …). The experiment in a line: ELISA.
In assay [10] the target is T2, MUC1 transmembrane cleavage product …. Nature of the assay: flow cytometry, HCT-MUC1-18 cells + enzyme (FIG. 75K). How it is done: as §1
Assay [11] concerns the target T1, PSMGFR peptide (Primary Sequence of the …). Nature of the assay: ELISA (FIG. 65A). The text has this:
The antibodies being tested were derived from animals immunized with the N+20/C−27 peptide. The first selection criteria was to confirm that the antibodies bound to the immunizing N+20/C−27 peptide. […] Although these antibodies were raised against the N+20/C−27 peptide, all but one, 45C11, still bind to the PSMGFR peptide. […] 1E4 was able to bind to the N+20/C−27 peptide, the PSMGFR and the N−10 peptide, consistent with the idea that its epitope must lie within the […] sequence. […] The color of the bars for each antibody in the ELISA graph are color coded to match the deductive cognate sequence, or a portion thereof, of that antibody.
This same ELISA assay was performed on the antibodies of the invention (FIG. 64-66 and FIG. 201). Note that only 20A10 exactly matches the binding profile of MNC2 and MNE6. 25E6, 28F9 and 18G12 are all able to bind to the N−10 peptide. 18B4 is the only antibody raised against the PSMGFR peptide that requires the 10 most N-terminal amino acids of the peptide. The color of the bars for each antibody in the ELISA graph are color coded to match the deductive cognate sequence, or a portion thereof, of that antibody. In addition, another set of antibodies was assayed by ELISA (FIG. 201). Of this set, B12, B2, B7, B9, 8C7F3, and H11 bound to the PSMGFR peptide, bound to the N−10 peptide, but not to the C−10 peptide (FIG. 201).

The target in a further assay is T11, NME7-AB (recombinant). Nature of the assay: ELISA (FIG. 2A). How it is done:
(§3) FIGS. 2A-2I show results of ELISA assays. MUC1* peptides PSMGFR, PSMGFR minus 10 amino acids from the N-terminus aka N−10, or PSMGFR minus 10 amino acids from the C-terminus, aka C−10 are immobilized on the plate and the following are assayed for binding: NME7-AB (FIG. 2A), MN-C2 monoclonal antibody (FIG. 2B), MN-E6 monoclonal antibody (FIG. 2C), or dimeric NME1 (FIG. 2D). […] MUC1* peptides PSMGFR minus 10 amino acids from the N-terminus aka N−10, or PSMGFR minus 10 amino acids from the C-terminus, aka C−10, are immobilized on the plate and the following are assayed for binding: MN-C3 (FIG. 2E) and MN-C8 (FIG. 2F).

For a further assay, the target named is T13, dimeric NME1 (human, UniProt P15531 1-152, limits assumed).
T13 construct: also called NM23-H1 dimers; dimeric NM23-H1
Nature of the assay: ELISA (FIG. 2D). How it is done: as §3

The target of assay [12] is B4. Nature of the assay: ELISA.
In assay [13] the target is T12, N+20/C-27 peptide (20 amino acids added …). The experiment in a line: ELISA (FIG. 63). How it is done: (§4) ELISA assays were performed to determine if, in addition to recognizing their immunizing peptide, they recognized PSMGFR, N−10 or C−10. In addition, they were tested for their ability to bind to N+20/C−27, N+9/C−9. We first did the ELISA assay on our set of reference antibodies, MNC2, MNE6, which we know are cancer-specific plus MNC3, which we know recognizes stem cells and progenitor cells (FIG. 63A-63B). None of the reference antibodies bound to the N+20/C−27 peptide. MNC2 and MNE6 cannot bind to PSMGFR peptides with 27, 10 or 9 C-terminal deletions, however, MNC3 binds to C−10 and to N+9/C−9 peptides.

Assay [14] has as its target T3, N+9/C-9 peptide (9 amino acids added …). The experiment in a line: ELISA (FIG. 63A). How it is done: as §4
Assay [15] concerns the target T1, PSMGFR peptide (Primary Sequence of the …). Nature of the assay: ELISA (FIG. 2C).
Assay [16] deals with T8, N-10 peptide (PSMGFR minus 10 amino …). The experiment in a line: ELISA (FIG. 2B-2C).

T13 sequence (P15531 whole entry): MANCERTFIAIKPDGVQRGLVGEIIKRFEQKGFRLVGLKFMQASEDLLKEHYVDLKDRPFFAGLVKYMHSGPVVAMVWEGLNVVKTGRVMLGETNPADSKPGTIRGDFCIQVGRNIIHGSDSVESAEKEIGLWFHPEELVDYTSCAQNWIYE

On to B1, for which, in assay [1], the binding result is reported as “no binding”. This molecule also had an EC50 in assay [2] of roughly 333 nM.
As to B2, the binding result in assay [3] is “no binding”; in assay [4], “binds”; in assay [5] it was “no binding”; with N-19/C-5 peptide, “no binding”; in [6], “no binding”; with N-26 peptide, “no binding”. Also, the binding result (with N-30 peptide; in the assay with N-10/C-5 peptide; in assay [7]; with N-19 peptide; in assay [8]) was “no binding” in each case.
B3: the binding result in [9], in assay [10], in assay [8] and in assay [11] was “no binding” each time.
On to B4, for which the binding result with NME7-AB (recombinant) and with dimeric NME1 was “no binding” in each case.
Turning to B5, the binding result is “no binding” in [12]; “no binding” in assay [13]; “no binding (tested: 10 ug/mL or 1 ug/mL)” in [14]; “binds” in [15]; “binds” in [16].

Broadly, the EC50 is the concentration that produces a half-maximal response. Read a low EC50 as an effect from little substance.
